Test [1] addresses Vps74 (endogenous, wild-type yeast cells) (Saccharomyces cerevisiae (strain ATCC …, UniProt Q06385)). Description: co-IP.
Test [2] concerns the target Vps74 (bacterially expressed, as used in the in vitro mixing assays) (yeast, UniProt Q06385). In words: pull-down.
For a further test, the target named is Twin-Strep-Vps74 (yeast, UniProt Q06385). In words: pull-down.

The values that follow come from publication doi:10.1101/2025.02.10.637573 (bioRxiv, 2025).

Chain of Twin-Strep-Vps74 (Q06385 whole entry): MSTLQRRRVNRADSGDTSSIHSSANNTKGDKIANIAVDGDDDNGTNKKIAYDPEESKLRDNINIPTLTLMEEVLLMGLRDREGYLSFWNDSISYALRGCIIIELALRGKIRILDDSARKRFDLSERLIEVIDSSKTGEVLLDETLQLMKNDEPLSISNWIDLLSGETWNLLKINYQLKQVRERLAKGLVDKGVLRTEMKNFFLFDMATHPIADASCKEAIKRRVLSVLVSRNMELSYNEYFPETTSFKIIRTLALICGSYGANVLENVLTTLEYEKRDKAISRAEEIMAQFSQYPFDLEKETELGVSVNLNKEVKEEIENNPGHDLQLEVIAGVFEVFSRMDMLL
Chain of Vps74 (endogenous, wild-type yeast cells) (Saccharomyces cerevisiae (Q06385 whole entry): as above
Chain of Vps74 (bacterially expressed, as used in the in vitro mixing assays) (Q06385 whole entry): as above

B1: Vps74InNb#4-HA (expressed in the cytoplasm of yeast cells) (VHH)
VHH: QVQLQESGGGLVQAGGSLRLSCAASGSISTIVGMGWYRQAPGKERELVAAITGGSSTNYADSVKGRFTISRDNAKNTVYLQMNSLKPEDTAVYYCAAVSYEYRSSPYPETYWGQGTQVTVSS
For the molecule B1, the binding result in test [1] was “binds”.

B2: Vps74InNb#4 (purified from the periplasm of E. coli) (VHH)
VHH: QVQLQESGGGLVQAGGSLRLSCAASGSISTIVGMGWYRQAPGKERELVAAITGGSSTNYADSVKGRFTISRDNAKNTVYLQMNSLKPEDTAVYYCAAVSYEYRSSPYPETYWGQGTQVTVSS
Take B2: the binding result (in test [2]; with Twin-Strep-Vps74) was “binds” throughout.
